Reference: article PMC7979749, “Structural basis of the dynamic human CEACAM1 monomer-dimer equilibrium” (Communications Biology, 2021)

B1: human CEACAM1 IgV domain, wildtype [human] / itself (parent)
chain: AQLTTESMPFNVAEGKEVLLLVHNLPQQLFGYSWYKGERVDGNRQIVGYAIGTQQATPGPANSGRETIYPNASLLIQNVTQNDTGFYTLQVIKSDLVNEEATGQFHVY

Variants of: B1
Test: SEC-MALS
Settings: with itself; 100 μM protein; read off a plot

screen value [Daltons] | Variant
15000 | chain 1 E100A
15000 | chain 1 I92A
19000 | chain 1 V40A
